The values that follow come from patent publication US20260274985A1 (MYTHIC THERAPEUTICS, published 2026).

The target in this assay is T1, Human TROP2 Protein, His Tag (Acro Biosystems) (human, UniProt P09758 27-274).
T1 construct: Bought protein; not shown: His tag
T1 sequence (looked up): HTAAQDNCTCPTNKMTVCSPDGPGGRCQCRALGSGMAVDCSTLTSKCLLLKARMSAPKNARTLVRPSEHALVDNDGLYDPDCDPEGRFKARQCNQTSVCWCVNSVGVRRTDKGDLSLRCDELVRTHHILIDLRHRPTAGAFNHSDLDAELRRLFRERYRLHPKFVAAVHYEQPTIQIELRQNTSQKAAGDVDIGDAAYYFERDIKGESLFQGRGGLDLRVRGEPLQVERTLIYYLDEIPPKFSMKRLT
Briefly: BLI (Octet). On the procedure: After allowing for four days of protein expression, cell culture supernatants were collected, quantified by SDS-PAGE analysis (DNS), and the pH dependence of the variant was evaluated using biolayer interferometry (BLI) on an Octet RED 96e instrument. Briefly, cell culture supernatants were diluted based on qualitative expression level of the variant determined by visual examination of SDS-PAGE gels, 5 μL of cell culture supernatant was diluted into 195 μL of 1×PBST, pH 7.4 for high expressors, 25 μL of cell culture supernatant was diluted into 175 μL of 1×PBST, pH 7.4 for medium expressors and 100 μL of cell culture supernatant was diluted into 100 μL of 1×PBST, pH 7.4 for low expressors for loading onto the sensor tips. The resulting diluted supernatants were then captured on an anti-human Fc sensor (Forte Bio). A baseline was established using 1×PBST (50 mM Potassium Phosphate Buffer+150 mM NaCl+0.05% Tween 20) pH 7.4, and the sensor was associated with 50 nM of TROP2 (Human TROP2 Protein, His Tag, Acro Biosystems) in 1×PBST pH 7.4 for 120 sec to generate an association curve. In the dissociation phase, the antibody-antigen complex on the sensor was exposed to 1×PBST pH 7.4 or pH 5.4, for 300 sec. Association and dissociation phase curves were examined for the starting ABPC antibody (with no substitutions) and each corresponding antibody variant at pH 5.4 and pH 7.4 to inform on two criteria: a) enhanced dissociation (i.e., higher koff values) at pH 5.4 due to histidine or alanine substitution compared to the starting ABPC, (with no substitutions), and b) reduced dissociation at pH 7.4 (i.e., lower koff values) compared to pH 5.4 in the antibody variant itself and with the starting ABPC (with no substitutions). […] It was also noted that while some mutations obliterated TROP2 binding, others were tolerated with little or n change in TROP2 binding kinetics.

Positions count from the first letter of the chain named.

B1: MYT11573 (antibody, V domains shown)
VH: QVQLQQSGSELKKPGASVKVSCKASGYTFTNHGMNWVKQAPGQGLKWMGWINTYTGEPTYTDDFKGRFAFSLDTSVSTAYLQISSLKADDTAVYFCARGGFGSSYWYFDVWGQGSLVTVSS
VL: DIQLTQSPSSLSASVGDRVSITCKASQDVSIAVAWYQQKPGKAPKLLIYSASYRYTGVPDRFSGSGSGTDFTLTISSLQPEDFAVYYCQQHYITPLTFGAGTKVEIK
As for B1, the binding result is recorded as “binds”.

B2: MYT11576 (antibody, V domains shown)
VH: B1 VH with H32Y, N35H
VL: B1 VL
notes: Sacituzumab variant, His at HCV position 35 (H1 10)
As to B2, the binding result is reported as “binds”.

B3: MYT11610 (antibody, V domains shown)
VH: B1 VH with H32Y
VL: B1 VL with S26H
notes: Sacituzumab variant, His at LCV position 26 (L1 03)
As for B3, the binding result was “binds”.

B4: MYT11588 (antibody, V domains shown)
VH: B1 VH with H32Y, T61H
VL: B1 VL
notes: Sacituzumab variant, His at HCV position 61 (H2 12)
B4: the binding result is reported as “binds”.

B5: MYT11577 (antibody, V domains shown)
VH: B1 VH with H32Y, W50H
VL: B1 VL
B5: the binding result is “binds”.

B6: MYT11593 (antibody, V domains shown)
VH: B1 VH with H32Y, G66H
VL: B1 VL
On to B6, for which the binding result is given as “binds”.

B7: MYT11596 (antibody, V domains shown)
VH: B1 VH with H32Y, G99H
VL: B1 VL
B7: the binding result was “binds”.

B8: MYT11589 (antibody, V domains shown)
VH: B1 VH with H32Y, D62H
VL: B1 VL
Consider B8, for which the binding result is listed as “binds”.

B9: MYT11592 (antibody, V domains shown)
VH: B1 VH with H32Y, K65H
VL: B1 VL
Consider B9, for which the binding result was “binds”.

B10: MYT11584 (antibody, V domains shown)
VH: B1 VH with H32Y, E57H
VL: B1 VL
notes: Sacituzumab variant, His at HCV position 57 (H2 08)
Take B10: the binding result is reported as “binds”.

B11: MYT11581 (antibody, V domains shown)
VH: B1 VH with H32Y, Y54H
VL: B1 VL
notes: Sacituzumab variant, His at HCV position 54 (H2 05)
B11: the binding result is reported as “binds”.

B12: MYT11574 (antibody, V domains shown)
VH: B1 VH with H32Y, G33H
VL: B1 VL
Turning to B12, the binding result is “binds”.

B13: MYT11591 (antibody, V domains shown)
VH: B1 VH with H32Y, F64H
VL: B1 VL
notes: Sacituzumab variant, His at HCV position 64 (H2 15)
Take B13: the binding result is “binds”.

B14: MYT11601 (antibody, V domains shown)
VH: B1 VH with H32Y, S104H
VL: B1 VL
notes: Sacituzumab variant, His at HCV position 104 (H3 08)
In the case of B14, the binding result is reported as “binds”.

B15: MYT11598 (antibody, V domains shown)
VH: B1 VH with H32Y, F101H
VL: B1 VL
notes: Sacituzumab variant, His at HCV position 101 (H3 05)
For B15, the binding result is “binds”.

B16: MYT11608 (antibody, V domains shown)
VH: B1 VH with H32Y
VL: B1 VL with K24H
notes: Sacituzumab variant, His at LCV position 24 (L1 01)
For the molecule B16, the binding result is reported as “binds”.

B17: MYT11590 (antibody, V domains shown)
VH: B1 VH with H32Y, D63H
VL: B1 VL
notes: Sacituzumab variant, His at HCV position 63 (H2 14)
With B17, the binding result was “binds”.

B18: MYT11602 (antibody, V domains shown)
VH: B1 VH with H32Y, Y105H
VL: B1 VL
Turning to B18, the binding result is “binds”.

B19: MYT11579 (antibody, V domains shown)
VH: B1 VH with H32Y, N52H
VL: B1 VL
notes: Sacituzumab variant, His at HCV position 52 (H2 03)
Turning to B19, the binding result is “binds”.

B20: MYT11575 (antibody, V domains shown)
VH: B1 VH with H32Y, M34H
VL: B1 VL
notes: Sacituzumab variant, His at HCV position 34 (H1 09)
With B20, the binding result is “binds”.

B21: MYT11580 (antibody, V domains shown)
VH: B1 VH with H32Y, T53H
VL: B1 VL
notes: Sacituzumab variant, His at HCV position 53 (H2 04)
Take B21: the binding result is “binds”.

B22: MYT11595 (antibody, V domains shown)
VH: B1 VH with H32Y, R98H
VL: B1 VL
notes: Sacituzumab variant, His at HCV position 98 (H3 02)
On to B22, for which the binding result is given as “binds”.

B23: MYT11582 (antibody, V domains shown)
VH: B1 VH with H32Y, T55H
VL: B1 VL
notes: Sacituzumab variant, His at HCV position 55 (H2 06)
Regarding B23, the binding result is “binds”.

B24: MYT11594 (antibody, V domains shown)
VH: B1 VH with H32Y, A97H
VL: B1 VL
notes: Sacituzumab variant, His at HCV position 97 (H3 01)
As to B24, the binding result is “binds”.

B25: MYT11585 (antibody, V domains shown)
VH: B1 VH with H32Y, P58H
VL: B1 VL
notes: Sacituzumab variant, His at HCV position 58 (H2 09)
As for B25, the binding result is reported as “binds”.

B26: MYT11609 (antibody, V domains shown)
VH: B1 VH with H32Y
VL: B1 VL with A25H
notes: Sacituzumab variant, His at LCV position 25 (L1 02)
With B26, the binding result is “binds”.

B27: MYT11578 (antibody, V domains shown)
VH: B1 VH with H32Y, I51H
VL: B1 VL
notes: Sacituzumab variant, His at HCV position 51 (H2 02)
For the molecule B27, the binding result is reported as “binds”.

B28: MYT11587 (antibody, V domains shown)
VH: B1 VH with H32Y, Y60H
VL: B1 VL
In the case of B28, the binding result is listed as “binds”.

B29: MYT11586 (antibody, V domains shown)
VH: B1 VH with H32Y, T59H
VL: B1 VL
notes: Sacituzumab variant, His at HCV position 59 (H2 10)
As to B29, the binding result is reported as “binds”.

B30: MYT11605 (antibody, V domains shown)
VH: B1 VH with H32Y, F108H
VL: B1 VL
Turning to B30, the binding result is reported as “binds”.

B31: MYT11607 (antibody, V domains shown)
VH: B1 VH with H32Y, V110H
VL: B1 VL
notes: Sacituzumab variant, His at HCV position 110 (H3 14)
For B31, the binding result is recorded as “binds”.
